Reference: patent US20060288448
Where a chain is given by its changes, count along the chain named.

How the values were obtained:
[1] = system: T1, Cry8Bb1-K05 88 kDa polypeptide
T1 sequence: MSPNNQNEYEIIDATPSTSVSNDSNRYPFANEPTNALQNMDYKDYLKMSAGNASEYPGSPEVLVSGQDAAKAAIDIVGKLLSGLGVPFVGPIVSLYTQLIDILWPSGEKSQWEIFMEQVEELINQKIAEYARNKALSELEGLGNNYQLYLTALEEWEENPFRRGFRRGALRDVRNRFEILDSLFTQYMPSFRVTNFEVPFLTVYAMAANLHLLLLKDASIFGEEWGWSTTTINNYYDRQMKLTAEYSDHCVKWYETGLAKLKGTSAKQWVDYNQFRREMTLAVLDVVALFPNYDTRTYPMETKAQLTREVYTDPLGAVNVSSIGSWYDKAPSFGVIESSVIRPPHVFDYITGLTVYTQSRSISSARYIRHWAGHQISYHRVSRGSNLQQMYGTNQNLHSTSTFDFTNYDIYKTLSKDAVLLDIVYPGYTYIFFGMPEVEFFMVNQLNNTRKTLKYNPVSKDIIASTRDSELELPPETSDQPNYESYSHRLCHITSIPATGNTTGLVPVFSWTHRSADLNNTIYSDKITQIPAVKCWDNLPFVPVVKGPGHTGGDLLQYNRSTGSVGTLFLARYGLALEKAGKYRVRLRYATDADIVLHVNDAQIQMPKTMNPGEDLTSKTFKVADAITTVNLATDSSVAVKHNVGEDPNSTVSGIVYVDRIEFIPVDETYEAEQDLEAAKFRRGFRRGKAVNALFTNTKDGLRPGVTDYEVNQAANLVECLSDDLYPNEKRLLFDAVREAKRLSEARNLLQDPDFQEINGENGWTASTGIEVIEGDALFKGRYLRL

[2] = system: T2, Cry8Bb1-ISC-1 88 kDa polypeptide
T2 sequence: T1 sequence with F161L, R162S, R163Q, G164S, F165L, R166S, R167Q, G168S

Substance | proteolytic digestion for 72 h (SDS-PAGE, N-terminal sequencing) [1] | proteolytic digestion for 72 h (SDS-PAGE) [2]
chymotrypsin | Cry8Bb1-K05 was cleaved within the loop between helix 3 and 4 of domain I of the toxin molecule to generate a 55 kDa polypeptide | the 88 kDa Cry8Bb1-ISC-1 polypeptide was not cleaved within the activation loop to generate the 55 kDa polypeptide
trypsin | Cry8Bb1-K05 was cleaved within the loop between helix 3 and 4 of domain I of the toxin molecule to generate a 55 kDa polypeptide | the 88 kDa Cry8Bb1-ISC-1 polypeptide was not cleaved within the activation loop to generate the 55 kDa polypeptide
